B1: P2C-1C10 (antibody, V domains shown)
VH: QVQLVQSGAEVKKPGSSVKVSCKASGGTFSSYAIIWVRQAPGQGLEWMGGIIPIFGTANYAQKFQGRVTITADESTSTAYMELSSLRSEDTAVYYCARVVTGYYFDYWGQGTLVTVSS
VL: EIVLTQSPATLSLSPGERATLSCRASQSVSSYLAWYQQKPGQAPRLLIYDASNRATGIPARFSGSGSGTDFTLTISSLEPEDFAVYYCQQRSNWPSFGQGTKLEIKR
B2: P2C-1D5 (antibody, V domains shown)
VH: not shown
VL: SYVLTQPPSVSVAPGKTARITCGGNNIGSKSVHWYQQKPGQAPVLVIYYDSDRPSGIPERFSGSNSGNTATLTISRVEAGDEADYYCQVWDSSSDHHVFGTGTKVTVLG
B3: P2C-1C8 (antibody, V domains shown)
VH: QVQLVESGGGVVQPGRSLRLSCAASGFTFRSYGMHWVRQAPGKGLEWVAVIWYDGSNKYYADSVKGRFTISRDNSKNTLYLQMNSLRAEDTAVYYCARDIEIVVVNIDYWGQGTLVTVSS
VL: not shown
B4: P5A-3C8 (antibody, human IgG1, kappa, V domains shown)
VH: EVQLVESGGGLIQPGGSLRLSCAASGFTVSSNYMSWVRQAPGKGLEWVSFIYSGGSTYYADSVKGRFTISRDNSKNTLYLQMNSLRAEDTAVYYCARDLQEHGMDVWGQGTTVTVSS
VL: DIQLTQSPSSLSASVGDRVTITCRASQGISSYLAWYQQKPGKAPKLLIYAASTLQSGVPSRFSGSGSGTDFTLTISSLQPEDFATYYCQHLNSYPPGYTFGQGTKLEIKR
B5: P5A-2G7 (antibody, human IgG1, lambda, V domains shown)
VH: QVQLQESGPGLVKPSETLSLTCTVSGDSVSSGSYYWSWIRQPPGKGLEWIGYIYYSGSTNYNPSLKSRVTISVDTSKNQFSLKLSSVTAADTAVYYCARERCYYGSGRAPRCVWFDPWGQGTLVTVSS
VL: QSALTQPASVSGSPGQSITISCTGTSSDVGGYNYVSWYQQHPGKAPKLMIYDVSNRPSGVSNRFSGSKSGNTASLTISGLQAEDEADYYCSSYTSSSTLVVFGGGTKLTVLG
B6: P5A-2G9 (antibody, human IgG1, lambda, V domains shown)
VH: QVQLVESGGGVVQPGRSLRLSCAASGFTFSSYGMHWVRQAPGKGLEWVAVIWYDGSNKYYADSVKGRFTISRDNSKNTLYLQMNSLRAEDTAVYYCARWFHTGGYFDYWGQGTLVTVSS
VL: QPVLTQPPSSSASPGESARLTCTLPSDINVSSYNIYWYQQKPGSPPRYLLYYYSDSDKGQGSGVPSRFSGSKDASANTGILLISGLQSEDEADYYCMIWPSNALYVFGTGTKVTVLG
B7: P22A-1D1 (antibody, human IgG1, kappa, V domains shown)
VH: EVQLVESGGGLIQPGGSLRLSCAASGFTVSSNYMSWVRQAPGKGLEWVSVIYSGGSTYYADSVKGRFTISRDNSKNTLYLQMNSLRAEDTAVYYCARDRDYYGMDVWGQGTTVTVSS
VL: DIQLTQSPSFLSASVGDRVTITCRASQGISSYLAWYQQKPGKAPKLLIYAASTLQSGVPSRFSGSGSGTEFTLTISSLQPEDFATYYCLHLNSYRTFGLGTKVEIKR
B8: P5A-1D1 (antibody, V domains shown)
VH: EVQLVESGGGLIQPGGSLRLSCAASGLTVSSNYMSWVRQAPGKGLEWVSVIYSGGSTYYADSVKGRFTISRDNSKNTLYLQMNSLRAEDTAVYYCARDLYYYGMDVWGQGTTVTVST
VL: DIQLTQSPSFLSASVGDRVTITCRASQGISSYLAWYQQKPGKAPKLLIYAASTLQSGVPSRFSGSGSGTDFTLTISSLQPEDFATYYCQQLNSYPTFGQGTRLEIKR
B9: P5A-3A1 (antibody, V domains shown)
VH: EVQLVESGGGLIQPGGSLRLSCAASGFTVSSNYMSWVRQAPGKGLEWVSVIYSGGSTYYADSVKGRFTISRDNSKNTLYLQMNSLRAEDTAVYYCARDYGDFYFDYWGQGTLVTVSS
VL: not shown
B10: P5A-3C12 (antibody, human IgG1, kappa, V domains shown)
VH: QITLKESGPTLVKPTQTLTLTCTFSGFSLSTSGVGVGWIRQPPGKALEWLALIYWDDDKRYSPSLKSRLTITKDTSKNQVVLTMTNMDPVDTATYYCAHSLFLTVGYSSSWSPFDYWGQGTLVTVSS
VL: not shown
B11: P4A-1H6 (antibody, human IgG1, kappa, V domains shown)
VH: QVQLVESGGGVVQPGRSLRLSCAASGFTFSSYGMHWVRQSPGKGLEWVAVISDDGSNQYYADSVKGRFTISRDNSKNTLYLQMNSLRVEDTAVYYCAKRGGYCSTTSCLLRWVYFDFWGQGTLATVSS
VL: DIQMTQSPSSLSASVGDRVTITCRASQSISSYLHWYQQKPGKAPNLLIYAASSLQSGVPSRFSGSGSGTDFTLTISSLQPEDFATYYCQQSYNTPTFGPGTKVDIKR
B12: P5A-1B6 (antibody, human IgG1, kappa, V domains shown)
VH: QVQLVESGGGVVQPGRSLRLSCAASGFTFSSYAMHWVRQAPGKGLEWVAVISYDGSNKYYADSVKGRFTISRDNSKNTLYLQMNSLRAEDTAVYYCARDGQAITMVQGVIGPPFDYWGQGTLVTVSS
VL: not shown
B13: P5A-1D10 (antibody, human IgG1, lambda, V domains shown)
VH: QVQLVESGGGLVKPGGSLRLSCAASQFTFSDYSMTWIRQAPGKGLEWVSYISQSGSTIYYADSVKGRFTISRDNAKNSLYLQMNSLRAEDTAVYYCARGVSPSYVWGSYRSLYHFDYWGQGTLVTVSS
VL: QSALTQPASVSGSPGQSITISCTGTSSDVGGYNYVSWYQQHPGKAPKLMIYDVSNRPSGVSNRFSASKSGNTASLTISGLQAEDEADYYCSSFTSSTTVVVFGGGTKLTVLG
B14: P5A-3A6 (antibody, human IgG1, lambda, V domains shown)
VH: EVQLVESGGGLVQPGRSLRLSCAASGFTFDDYAMHWVRQAPGKGLEWVSGISWNSGTIGYADSVKGRFIISRDNAKNSLYLQMNSLRAEDTALYYCAGGGTMVRGVIAGGGTHPVDDYYGMDVWGQGTTVTVSS
VL: QSALTQPASVSGSPGQSITISCTGTSSDVGGYNYVSWYQQHPGKAPKLMIYDVSNRPSGVSNRFSGSKSGNTASLTISGLQAEDEADYYCSSYTSSSTVVFGGGTKLTVLG
B15: P5A-1B8 (antibody, human IgG1, kappa, V domains shown)
VH: EVQLVESGGGLIQPGGSLRLSCAASGFTVSSNYMSWVRQAPGKGLEWVSVIYPGGSTFYADSVKGRFTISRDNSKNTLYLQMNSLRAEDTAVYYCARETLAFDYWGQGTLVTVSS
VL: DIQLTQSPSFLSASVGDRVTITCRASQGISSYLAWYQQKPGKAPKLLIYAASTLQSGVPSRFSGSGSGTEFTLTISSLQPEDFATYYCQQLNSYPPAFGGGTKVEIKR
B16: P5A-2G9 (antibody, human IgG1, lambda, V domains shown)
VH: QVQLVESGGGVVQPGRSLRLSCAASGFTFSSYGMHWVRQAPGKGLEWVAVIWYDGSNKYYADSVKGRFTISRDNSKNTLYLQMNSLRAEDTAVYYCARWFHTGGYFDYWGQGTLVTVSS
VL: QPVLTQPPSSSASPGESARLTCTLPSDINVSSYNIYWYQQKPGSPPRYLLYYYSDSDKGQGSGVPSRFSGSKDASANTGILLISGLQSEDEADYYCMIWPSNALYVFGTGTKVTVLG
B17: P5A-1D2 (antibody, human IgG1, lambda, V domains shown)
VH: EVQLVESGGGLIQPGGSLRLSCAASGFIVSSNYMSWVRQAPGKGLEWVSIIYSGGSTYYADSVKGRFTISRDNSNNTLYLQMNSLRAEDTAVYYCARALQVGATSDYFDYWGQGTLVTVSS
VL: QSVLTQPPSVSGAPGQRVTISCTGSSSNIGAGYDVHWYQQLPGTAPKLLIYGNSNRPSGVPDRFSGSKSGTSASLAITGLQAEDETDYYCQSCDSSLSVVVFGGGTKLTVLG
B18: P5A-2G7 (antibody, human IgG1, lambda, V domains shown)
VH: QVQLQESGPGLVKPSETLSLTCTVSGDSVSSGSYYWSWIRQPPGKGLEWIGYIYYSGSTNYNPSLKSRVTISVDTSKNQFSLKLSSVTAADTAVYYCARERCYYGSGRAPRCVWFDPWGQGTLVTVSS
VL: QSALTQPASVSGSPGQSITISCTGTSSDVGGYNYVSWYQQHPGKAPKLMIYDVSNRPSGVSNRFSGSKSGNTASLTISGLQAEDEADYYCSSYTSSSTLVVFGGGTKLTVLG

The target in the first test is T1, full length spike (S) protein of SARS-CoV-2 (SARS-CoV-2, UniProt P0DTC2 14-1273). In words: cell-based or functional assay.
Consider B1, for which the “IC50, pseudovirus neutralization” value came out at 2.62 µg/mL; the “Neutralizing activity (%) Mean at 0.0228624 µg/ml” value is -2.34%; the “Neutralizing activity (%) Mean at 0.0685871 µg/ml” value was 7.78%; the “Neutralizing activity (%) Mean at 0.2057613 µg/ml” value was found to be 13.4%. For the same molecule, the “Neutralizing activity (%) Mean at 0.6172839 µg/ml” value came out at 5.92%, the “Neutralizing activity (%) Mean at 1.851852 µg/ml” value was determined as 38.5%, the “Neutralizing activity (%) Mean at 5.555555 µg/ml” value is 88.9% and the “Neutralizing activity (%) Mean at 16.66667 µg/ml” value turned out to be 99.9%. The “Neutralizing activity (%) Mean at 50 µg/ml” value turned out to be 100%.
B2: the “IC50, pseudovirus neutralization” value worked out at 10.7 µg/mL; the “Neutralizing activity (%) Mean at 0.0228624 µg/ml” value came to 4.24%; the “Neutralizing activity (%) Mean at 0.0685871 µg/ml” value is 5.65%; the “Neutralizing activity (%) Mean at 0.2057613 µg/ml” value was 8.66%. The “Neutralizing activity (%) Mean at 0.6172839 µg/ml” value stood at 12.4%, the “Neutralizing activity (%) Mean at 1.851852 µg/ml” value worked out at 16.1%, the “Neutralizing activity (%) Mean at 5.555555 µg/ml” value is 33.6% and the “Neutralizing activity (%) Mean at 16.66667 µg/ml” value was determined as 64.9%. Besides, the “Neutralizing activity (%) Mean at 50 µg/ml” value is 90.2%.
For the molecule B3, the “Neutralizing activity (%) Mean at 0.0228624 µg/ml” value was -7.15%, the “Neutralizing activity (%) Mean at 0.0685871 µg/ml” value was determined as 2.8%, the “Neutralizing activity (%) Mean at 0.2057613 µg/ml” value was 4.92% and the “Neutralizing activity (%) Mean at 0.6172839 µg/ml” value was found to be 10.1%. Also, the “Neutralizing activity (%) Mean at 1.851852 µg/ml” value amounted to 8.39%, the “Neutralizing activity (%) Mean at 5.555555 µg/ml” value is 23.3%, the “Neutralizing activity (%) Mean at 16.66667 µg/ml” value was determined as 34.7% and the “Neutralizing activity (%) Mean at 50 µg/ml” value was 59.2%.

The target of the next test is T1, full length spike (S) protein of …. In words: cell-based or functional assay. This is another data set of the same source.
Consider B4, for which the “IC50, pseudovirus neutralization” value is 0.024 µg/mL.
With B5, the “IC50, pseudovirus neutralization” value came out at 0.016 µg/mL.

A further test has the same target. In words: cell-based or functional assay. The source holds these as a separate data set.
Consider B6, for which the “IC50, Pesudovirus neutralization” value is 0.0158 µg/mL; the “IC80, Pesudovirus neutralization” value was determined as 0.147 µg/mL; the “IC90, Pesudovirus neutralization” value came out at 0.498 µg/mL.
On to B7, for which the “IC90, Pesudovirus neutralization” value is 0.399 µg/mL.
For the molecule B8, the “IC90, Pesudovirus neutralization” value was 0.232 µg/mL.
Regarding B9, the “IC90, Pesudovirus neutralization” value stood at 7.2 µg/mL.
On the same count and under the same terms, as for B10, the figure is 0.955 µg/mL; as for B11, 2.21 µg/mL; as for B12, 4.2 µg/mL.
As to B13, the “IC50, Pesudovirus neutralization” value was determined as 5.72 µg/mL; the “IC80, Pesudovirus neutralization” value worked out at 28.9 µg/mL; the “IC90, Pesudovirus neutralization” value turned out to be 43.8 µg/mL.
On to B14, for which the “IC50, Pesudovirus neutralization” value came to 0.234 µg/mL; the “IC80, Pesudovirus neutralization” value is 1.27 µg/mL; the “IC90, Pesudovirus neutralization” value was 2.77 µg/mL.
Regarding B15, the “IC80, Pesudovirus neutralization” value was determined as 0.0509 µg/mL and the “IC90, Pesudovirus neutralization” value was determined as 0.137 µg/mL.

Another test concerns the target full length S protein of SARS-CoV-2 (on pseudovirus) (SARS-CoV-2, UniProt P0DTC2 14-1273). In words: cell-based or functional assay.
Turning to B16, the “Pseudovirus IC50” value was determined as 0.0158 µg/mL and the “Pseudovirus IC80” value worked out at 0.147 µg/mL.
Taken in the same sequence, the figures for B17 were 0.0186 µg/mL and 0.102 µg/mL.
On the same counts, the results for B18 are 0.0044 µg/mL and 0.0287 µg/mL.
